Patent US20220389095A1 (AGENUS, published 2022)

Target: T1, human TIGIT (human, UniProt Q495A1 22-244)
T1 construct: whole, on cells; The assays used cell-surface TIGIT; also called T-cell immunoreceptor with Ig and ITIM domains; VSIG9
T1 sequence (looked up): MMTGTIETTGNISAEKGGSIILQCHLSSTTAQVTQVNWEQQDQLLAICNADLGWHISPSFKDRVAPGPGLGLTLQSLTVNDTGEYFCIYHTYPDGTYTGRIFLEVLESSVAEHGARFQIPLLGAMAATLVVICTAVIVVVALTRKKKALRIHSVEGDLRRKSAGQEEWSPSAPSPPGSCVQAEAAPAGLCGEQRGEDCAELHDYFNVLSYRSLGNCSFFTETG
Experiment: flow cytometry on anti-CD3-activated human PBMC, gated on CD4+ and CD8+ T cells
Description: After four days, the sample plates were centrifuged for two minutes at 2000 rpm and then supernatants were discarded. Samples were blocked with FcγR Block prepared in FACs buffer at 5 μL per 100 μL for 10 minutes. Sample plates were then centrifuged for two minutes at 2000 rpm and the supernatant was discarded. The cells were then resuspended in 100 μL of BA159 or a relevant isotype control antibody. To prepare antibodies, each antibody was diluted to 40 μg/mL in buffer for a final volume of 200 μL. Antibodies were then serially diluted 1 to 4 for a total of 12 dilutions ranging from 40 μg/mL to 0.00000954 μg/mL.
Cells were then resuspended in a cocktail of fluorescently labeled antibodies prepared in FACs buffer. 100 μL of antibody was add per well of a round-bottom 96-well plate. The sample plate was incubated for 20 minutes on ice. Cells were then washed by addition of cold sample buffer, centrifuged for two minutes at 2000 rpm, and supernatants were discarded. This wash was repeated once. […]
Antibody binding was measured by flow cytometry using a BD LSR Fortessa Flow Cytometer. […] 100,000 events were recorded for each sample. Samples were analyzed by sequentially gating on the following populations: FSC-A vs SSC-A, FSC-H vs FSC-A, SSC-A vs LIVE/DEAD, and CD4 vs CD8 Mean fluorescence intensity (MFI) was calculated.

B1: BA159 (antibody, human IgG1, lambda)
heavy: EVQLVQSGAEVKKPGSSVKVSCKASGYTFASYGISWVRQAPGQGLEWMGGITPFFNRVDVAEKFQGRVTITADKSTSTAYIELSSLRSEDTAVYYCARDLRRGGVGDAFDIWGRGTLVTVSSASTKGPSVFPLAPSSKSTSGGTAALGCLVKDYFPEPVTVSWNSGALTSGVHTFPAVLQSSGLYSLSSVVTVPSSSLGTQTYICNVNHKPSNTKVDKRVEPKSCDKTHTCPPCPAPELLGGPDVFLFPPKPKDTLMISRTPEVTCVVVDVSHEDPEVKFNWYVDGVEVHNAKTKPREEQYNSTYRVVSVLTVLHQDWLNGKEYKCKVSNKALPLPEEKTISKAKGQPREPQVYTLPPSREEMTKNQVSLTCLVKGFYPSDIAVEWESNGQPENNYKTTPPVLDSDGSFFLYSKLTVDKSRWQQGNVFSCSVMHEALHNHYTQKSLSLSPGK
light: QSALTQPRSVSGSPGQSVTISCTGTSSDVGSHNYVSWYQQHPGKAPKLMIYEVSYRPSGVSNRFSGSKSGNTASLTISGLQAEDEADYYCSSYTPSSATVFGAGTKLTVLGQPKAAPSVTLFPPSSEELQANKATLVCLISDFYPGAVTVAWKADSSPVKAGVETTTPSKQSNNKYAASSYLSLTPEQWKSHRSYSCQVTHEGSTVEKTVAPTECS
notes: also called anti-TIGIT antibody BA159
binding result: binds
